Experimental findings from US20120142593A1 (Bayer, published 2012) are described below.

Test [1] deals with human von Willebrand Factor (human) (UniProt P04275). The test is described as follows: Biacore SPR, human vWF immobilized on a CM-5 chip by amine coupling, full-length recombinant FVIII passed over as analyte. In general terms: SPR reads the build-up and loss of mass on a sensor chip optically.
Another test concerns the target T1, recombinant mouse FcRn (mouse, UniProt Q61559 22-297; P01887 21-119, limits assumed).
T1 construct: also called mFcRn
T1 sequence (looked up) 1: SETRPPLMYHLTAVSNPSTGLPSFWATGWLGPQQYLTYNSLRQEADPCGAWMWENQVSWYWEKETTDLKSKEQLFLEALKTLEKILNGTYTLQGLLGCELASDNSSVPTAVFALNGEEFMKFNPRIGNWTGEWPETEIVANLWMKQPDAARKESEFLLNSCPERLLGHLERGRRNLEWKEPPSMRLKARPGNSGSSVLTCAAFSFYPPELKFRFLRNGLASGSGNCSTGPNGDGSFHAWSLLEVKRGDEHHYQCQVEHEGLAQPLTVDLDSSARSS
T1 sequence (looked up) 2: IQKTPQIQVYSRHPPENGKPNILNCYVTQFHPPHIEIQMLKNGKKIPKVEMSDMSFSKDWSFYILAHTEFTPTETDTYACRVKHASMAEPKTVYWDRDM
The test is described as follows: Biacore, mFcRn immobilized on CM-5 chip. An excerpt:
The following example describes functional studies performed using the Biacore™ system to determine whether an FcRn binding epitope retains it ability to bind to FnRn when incorporated in a Factor VIII fusion heterodimer. For use in the Biacore™ test, recombinant mouse FcRn (mFcRn) protein was expressed in CHO-K1 cells and purified by mouse IgG-affinity chromatography. Mouse FcRn was immobilized onto a CM-5 chip by amine coupling. Two Factor VIII heterodimers (BDDFc+hinge and BDDFc−hinge), BDD (the Factor VIII protein from which BDDFc+hinge and BDDFc−hinge are derived), and full-length recombinant Factor VIII were passed over the surface of the chip at various concentrations (e.g., 1.5, 3, 6, 12, 25, and 50 nM). Binding of BDDFc±hinge Factor VIII fusion heterodimers to immobilized mFcRn was detected (FIG. 13).

Test [2] deals with T2, human von Willebrand Factor (human, UniProt P04275 764-2813).
T2 construct: also called vWF; vWf
Put plainly: Biacore, human vWF immobilized on CM-5 chip. On the procedure:
(§1) Human vWF was immobilized onto a CM-5 chip by amine coupling. Two Factor VIII heterodimers (BDDFc+hinge and BDDFc−hinge), BDD (the Factor VIII protein from which BDDFc+hinge and BDDFc−hinge are derived), and full-length recombinant Factor VIII were passed over the surface of the chip at various concentrations (e.g., 1, 2, 4, 8, 16, and 25 nM).

Test [3] has as its target T2, human von Willebrand Factor. The test is described as follows: Biacore SPR, human vWF immobilized on a CM-5 chip by amine coupling, BDD passed over as analyte. On the procedure:
as §1

Regarding “full-length recombinant Factor VIII (from UniProt P00451 20-2351)”, in test [1], the dissociation constant (Kd) was 0.657 nM.

B1: BDDFc-hinge Factor VIII fusion heterodimer (Fc fusion)
chain: ATRRYYLGAVELSWDYMQSDLGELPVDARFPPRVPKSFPFNTSVVYKKTLFVEFTDHLFNIAKPRPPWMGLLGPTIQAEVYDTVVITLKNMASHPVSLHAVGVSYWKASEGAEYDDQTSQREKEDDKVFPGGSHTYVWQVLKENGPMASDPLCLTYSYLSHVDLVKDLNSGLIGALLVCREGSLAKEKTQTLHKFILLFAVFDEGKSWHSETKNSLMQDRDAASARAWPKMHTVNGYVNRSLPGLIGCHRKSVYWHVIGMGTTPEVHSIFLEGHTFLVRNHRQASLEISPITFLTAQTLLMDLGQFLLFCHISSHQHDGMEAYVKVDSCPEEPQLRMKNNEEAEDYDDDLTDSEMDVVRFDDDNSPSFIQIRSVAKKHPKTWVHYIAAEEEDWDYAPLVLAPDDRSYKSQYLNNGPQRIGRKYKKVRFMAYTDETFKTREAIQHESGILGPLLYGEVGDTLLIIFKNQASRPYNIYPHGITDVRPLYSRRLPKGVKHLKDFPILPGEIFKYKWTVTVEDGPTKSDPRCLTRYYSSFVNMERDLASGLIGPLLICYKESVDQRGNQIMSDKRNVILFSVFDENRSWYLTENIQRFLPNPAGVQLEDPEFQASNIMHSINGYVFDSLQLSVCLHEVAYWYILSIGAQTDFLSVFFSGYTFKHKMVYEDTLTLFPFSGETVFMSMENPGLWILGCHNSDFRNRGMTALLKVSSCDKNTGDYYEDSYEDISAYLLSKNNAIEPRSFSQNVPEVSSVFIFPPKPKDVLTITLTPKVTCVVVDISKDDPEVQFSWFVDDVEVHTAQTQPREEQFNSTFRSVSELPIMHQDWLNGKEFKCRVNSAAFPAPIEKTISKTKGRPKAPQVYTIPPPKEQMAKDKVSLTCMITDFFPEDITVEWQWNGQPAENYKNTQPIMDTDGSYFVYSKLNVQKSNWEAGNTFTCSVLHEGLHNHHTEKSLSHSPGKSQNPPVLKRHQREITRTTLQSDQEEIDYDDTISVEMKKEDFDIYDEDENQSPRSFQKKTRHYFIAAVERLWDYGMSSSPHVLRNRAQSGSVPQFKKVVFQEFTDGSFTQPLYRGELNEHLGLLGPYIRAEVEDNIMVTFRNQASRPYSFYSSLISYEEDQRQGAEPRKNFVKPNETKTYFWKVQHHMAPTKDEFDCKAWAYFSDVDLEKDVHSGLIGPLLVCHTNTLNPAHGRQVTVQEFALFFTIFDETKSWYFTENMERNCRAPCNIQMEDPTFKENYRFHAINGYIMDTLPGLVMAQDQRIRWYLLSMGSNENIHSIHFSGHVFTVRKKEEYKMALYNLYPGVFETVEMLPSKAGIWRVECLIGEHLHAGMSTLFLVYSNKCQTPLGMASGHIRDFQITASGQYGQWAPKLARLHYSGSINAWSTKEPFSWIKVDLLAPMIIHGIKTQGARQKFSSLYISQFIIMYSLDGKKWQTYRGNSTGTLMVFFGNVDSSGIKHNIFNPPIIARYIRLHPTHYSIRSTLRMELMGCDLNSCSMPLGMESKAISDAQITASSYFTNMFATWSPSKARLHLQGRSNAWRPQVNNPKEWLQVDFQKTMKVTGVTTQGVKSLLTSMYVKEFLISSSQDGHQWTLFFQNGKVKVFQGNQDSFTPVVNSLDPPLLTRYLRIHPQSWVHQIALRMEVLGCEAQDLY
notes: No signal peptide limits are stated on this entry; It is processed into a heavy chain-Fc chimera and a light chain; also called BDDmFc-hinge expression product; FVIII-Fc
For B1, the Kd with recombinant mouse FcRn amounted to 3.75 nM; in test [2] it was 0.908 nM.

B2: B-domain deleted Factor VIII (BDD) (other)
chain: ATRRYYLGAVELSWDYMQSDLGELPVDARFPPRVPKSFPFNTSVVYKKTLFVEFTVHLFNIAKPRPPWMGLLGPTIQAEVYDTVVITLKNMASHPVSLHAVGVSYWKASEGAEYDDQTSQREKEDDKVFPGGSHTYVWQVLKENGPMASDPLCLTYSYLSHVDLVKDLNSGLIGALLVCREGSLAKEKTQTLHKFILLFAVFDEGKSWHSETKNSLMQDRDAASARAWPKMHTVNGYVNRSLPGLIGCHRKSVYWHVIGMGTTPEVHSIFLEGHTFLVRNHRQASLEISPITFLTAQTLLMDLGQFLLFCHISSHQHDGMEAYVKVDSCPEEPQLRMKNNEEAEDYDDDLTDSEMDVVRFDDDNSPSFIQIRSVAKKHPKTWVHYIAAEEEDWDYAPLVLAPDDRSYKSQYLNNGPQRIGRKYKKVRFMAYTDETFKTREAIQHESGILGPLLYGEVGDTLLIIFKNQASRPYNIYPHGITDVRPLYSRRLPKGVKHLKDFPILPGEIFKYKWTVTVEDGPTKSDPRCLTRYYSSFVNMERDLASGLIGPLLICYKESVDQRGNQIMSDKRNVILFSVFDENRSWYLTENIQRFLPNPAGVQLEDPEFQASNIMHSINGYVFDSLQLSVCLHEVAYWYILSIGAQTDFLSVFFSGYTFKHKMVYEDTLTLFPFSGETVFMSMENPGLWILGCHNSDFRNRGMTALLKVSSCDKNTGDYYEDSYEDISAYLLSKNNAIEPRSFSQNPPVLKRHQREITRTTLQSDQEEIDYDDTISVEMKKEDFDIYDEDENQSPRSFQKKTRHYFIAAVERLWDYGMSSSPHVLRNRAQSGSVPQFKKVVFQEFTDGSFTQPLYRGELNEHLGLLGPYIRAEVEDNIMVTFRNQASRPYSFYSSLISYEEDQRQGAEPRKNFVKPNETKTYFWKVQHHMAPTKDEFDCKAWAYFSDVDLEKDVHSGLIGPLLVCHTNTLNPAHGRQVTVQEFALFFTIFDETKSWYFTENMERNCRAPCNIQMEDPTFKENYRFHAINGYIMDTLPGLVMAQDQRIRWYLLSMGSNENIHSIHFSGHVFTVRKKEEYKMALYNLYPGVFETVEMLPSKAGIWRVECLIGEHLHAGMSTLFLVYSNKCQTPLGMASGHIRDFQITASGQYGQWAPKLARLHYSGSINAWSTKEPFSWIKVDLLAPMIIHGIKTQGARQKFSSLYISQFIIMYSLDGKKWQTYRGNSTGTLMVFFGNVDSSGIKHNIFNPPIIARYIRLHPTHYSIRSTLRMELMGCDLNSCSMPLGMESKAISDAQITASSYFTNMFATWSPSKARLHLQGRSNAWRPQVNNPKEWLQVDFQKTMKVTGVTTQGVKSLLTSMYVKEFLISSSQDGHQWTLFFQNGKVKVFQGNQDSFTPVVNSLDPPLLTRYLRIHPQSWVHQIALRMEVLGCEAQDLY
notes: The protein circulates as a heavy chain and light chain heterodimer; also called BDD-FVIII; BDD Factor VIII
In test [3], B2 registered a Kd of 0.53 nM.

B3: BDDFc+hinge Factor VIII fusion heterodimer (Fc fusion)
chain: ATRRYYLGAVELSWDYMQSDLGELPVDARFPPRVPKSFPFNTSVVYKKTLFVEFTDHLFNIAKPRPPWMGLLGPTIQAEVYDTVVITLKNMASHPVSLHAVGVSYWKASEGAEYDDQTSQREKEDDKVFPGGSHTYVWQVLKENGPMASDPLCLTYSYLSHVDLVKDLNSGLIGALLVCREGSLAKEKTQTLHKFILLFAVFDEGKSWHSETKNSLMQDRDAASARAWPKMHTVNGYVNRSLPGLIGCHRKSVYWHVIGMGTTPEVHSIFLEGHTFLVRNHRQASLEISPITFLTAQTLLMDLGQFLLFCHISSHQHDGMEAYVKVDSCPEEPQLRMKNNEEAEDYDDDLTDSEMDVVRFDDDNSPSFIQIRSVAKKHPKTWVHYIAAEEEDWDYAPLVLAPDDRSYKSQYLNNGPQRIGRKYKKVRFMAYTDETFKTREAIQHESGILGPLLYGEVGDTLLIIFKNQASRPYNIYPHGITDVRPLYSRRLPKGVKHLKDFPILPGEIFKYKWTVTVEDGPTKSDPRCLTRYYSSFVNMERDLASGLIGPLLICYKESVDQRGNQIMSDKRNVILFSVFDENRSWYLTENIQRFLPNPAGVQLEDPEFQASNIMHSINGYVFDSLQLSVCLHEVAYWYILSIGAQTDFLSVFFSGYTFKHKMVYEDTLTLFPFSGETVFMSMENPGLWILGCHNSDFRNRGMTALLKVSSCDKNTGDYYEDSYEDISAYLLSKNNAIEPRSFSQNVPRDCGCKPCICTVPEVSSVFIFPPKPKDVLTITLTPKVTCVVVDISKDDPEVQFSWFVDDVEVHTAQTQPREEQFNSTFRSVSELPIMHQDWLNGKEFKCRVNSAAFPAPIEKTISKTKGRPKAPQVYTIPPPKEQMAKDKVSLTCMITDFFPEDITVEWQWNGQPAENYKNTQPIMDTDGSYFVYSKLNVQKSNWEAGNTFTCSVLHEGLHNHHTEKSLSHSPGKSQNPPVLKRHQREITRTTLQSDQEEIDYDDTISVEMKKEDFDIYDEDENQSPRSFQKKTRHYFIAAVERLWDYGMSSSPHVLRNRAQSGSVPQFKKVVFQEFTDGSFTQPLYRGELNEHLGLLGPYIRAEVEDNIMVTFRNQASRPYSFYSSLISYEEDQRQGAEPRKNFVKPNETKTYFWKVQHHMAPTKDEFDCKAWAYFSDVDLEKDVHSGLIGPLLVCHTNTLNPAHGRQVTVQEFALFFTIFDETKSWYFTENMERNCRAPCNIQMEDPTFKENYRFHAINGYIMDTLPGLVMAQDQRIRWYLLSMGSNENIHSIHFSGHVFTVRKKEEYKMALYNLYPGVFETVEMLPSKAGIWRVECLIGEHLHAGMSTLFLVYSNKCQTPLGMASGHIRDFQITASGQYGQWAPKLARLHYSGSINAWSTKEPFSWIKVDLLAPMIIHGIKTQGARQKFSSLYISQFIIMYSLDGKKWQTYRGNSTGTLMVFFGNVDSSGIKHNIFNPPIIARYIRLHPTHYSIRSTLRMELMGCDLNSCSMPLGMESKAISDAQITASSYFTNMFATWSPSKARLHLQGRSNAWRPQVNNPKEWLQVDFQKTMKVTGVTTQGVKSLLTSMYVKEFLISSSQDGHQWTLFFQNGKVKVFQGNQDSFTPVVNSLDPPLLTRYLRIHPQSWVHQIALRMEVLGCEAQDLY
notes: also called BDDmFc+hinge expression product
As to B3, the Kd with recombinant mouse FcRn turned out to be 2.48 nM; in test [2], 0.465 nM.

A word on the Kd: it is a measure of binding affinity in units of concentration.
